For 13 molecules, Kd results are on record in patent publication US20260337278 (published 2026).

What is called Kd is the concentration at which binding is half-saturated.

Where two headings read alike, the source gives them in different places.

Common to all, as to assay: BLI
Experiment [1] concerns the target T1, EGFRvIII (human, UniProt P00533).
Experiment [2] deals with T1, EGFRvIII. This is another data set of the same source.
The target in experiment [3] is EGFR (wild-type, His-tagged or biotinylated) (human, UniProt P00533).

B1: SI-95X14 (antibody)
chain 1: not shown
chain 2: DIQMTQSPSSLSASVGDRVTITCRSSQNIVHSNGNTYLDWYQQTPGKAPKLLIYKVSNRFSGVPSRFSGSGSGTDFTFTISSLQPEDIATYYCFQYSHVPWTFGQGTKLQITGGGGSGGGGSGGGGSQVQLQQSGAEVKKPGSSVKVSCKASGYTFTNYYIYWVRQAPGQGLEWIGGINPTSGGSNFNEKFKTRVTITADESSTTAYMELSSLRSEDTAFYFCTRQGLWFDSDGRGFDFWGQGTTVTVSSSGSGSGGGGGSGGGGSGGGGSDILMTQSPSSMSVSLGDTVSITCHSSQDINSNIGWLQQRPGKSFKGLIYHGTNLDDEVPSRFSGSGSGADYSLTISSLESEDFADYYCVQYAQFPWTFGGGTKLEIKRTVAAPSVFIFPPSDEQLKSGTASVVCLLNNFYPREAKVQWKVDNALQSGNSQESVTEQDSKDSTYSLSSTLTLSKADYEKHKVYACEVTHQGLSSPVTKSFNRGEC
In the case of B1, in the experiment with EGFRvIII [1], the Kd was 0.428 nM.

B2: SI-95X46 (antibody)
chain 1: not shown
chain 2: EIVLTQSPSTLSVSPGERATFSCRASQSIGTNIHWYQQKPGKPPRLLIKYASESISGIPDRFSGSGSGTEFTLTISSVQSEDFAVYYCQQNNNWPTTFGPGTKLTVLRTVAAPSVFIFPPSDEQLKSGTASVVCLLNNFYPREAKVQWKVDNALQSGNSQESVTEQDSKDSTYSLSSTLTLSKADYEKHKVYACEVTHQGLSSPVTKSFNRGEC
In the case of B2, the dissociation constant Kd with EGFRvIII [2] came to 0.358 nM; in experiment [3] it was 7.3 nM.

B3: SI-95X49 (antibody)
chain 1: not shown
chain 2: EIVLTQSPSTLSVSPGERATFSCRASQSIGTNIHWYQQKPGKPPRLLIKYASESISGIPDRFSGSGSGTEFTLTISSVQSEDFAVYYCQQNFNWPTTFGPGTKLTVLRTVAAPSVFIFPPSDEQLKSGTASVVCLLNNFYPREAKVQWKVDNALQSGNSQESVTEQDSKDSTYSLSSTLTLSKADYEKHKVYACEVTHQGLSSPVTKSFNRGEC
Consider B3, for which the figures for the Kd (with EGFRvIII [2]; in experiment [3]) were 0.291 nM and 17.6 nM, respectively.

B4: SI-95X63 (antibody)
chain 1: not shown
chain 2: DILMTQSPSSMSVSLGDTVSITCHSSQDINSNIGWLQQRPGKSFKGLIYHGTNLDDEVPSRFSGSGSGADYSLTISSLESEDFADYYCVQYAQFPWTFGGGTKLEIKRTVAAPSVFIFPPSDEQLKSGTASVVCLLNNFYPREAKVQWKVDNALQSGNSQESVTEQDSKDSTYSLSSTLTLSKADYEKHKVYACEVTHQGLSSPVTKSFNRGEC
As for B4, the Kd in the experiment with EGFRvIII [2] is 0.493 nM; in experiment [3], 0.497 nM.

B5: SI-95X68 (antibody)
chain 1: not shown
chain 2: DILMTQSPSSMSVSLGDTVSITCHSSQDINSNIGWLQQRPGKSFKGLIYHGTNLDDEVPSRFSGSGSGADYSLTISSLESEDFADYYCVQYAQFPWTFGGGTKLEIKRTVAAPSVFIFPPSDEQLKSGTASVVCLLNNFYPREAKVQWKVDNALQSGNSQESVTEQDSKDSTYSLSSTLTLSKADYEKHKVYACEVTHQGLSSPVTKSFNRGEC
On to B5, for which the Kd with EGFRvIII [2] is 0.865 nM; in experiment [3], 1.87 nM.

B6: SI-95X10 (antibody)
chain 1: not shown
chain 2: DILMTQSPSSMSVSLGDTVSITCHSSQDINSNIGWLQQRPGKSFKGLIYHGTNLDDEVPSRFSGSGSGADYSLTISSLESEDFADYYCVQYAQFPWTFGGGTKLEIKRTVAAPSVFIFPPSDEQLKSGTASVVCLLNNFYPREAKVQWKVDNALQSGNSQESVTEQDSKDSTYSLSSTLTLSKADYEKHKVYACEVTHQGLSSPVTKSFNRGEC
Take B6: binding with EGFRvIII [1] was characterised by a dissociation constant (Kd) of 7 nM.

B7: SI-95X44 (antibody)
chain 1: not shown
chain 2: DILMTQSPSSMSVSLGDTVSITCHSSQDINSNIGWLQQRPGKSFKGLIYHGTNLDDEVPSRFSGSGSGADYSLTISSLESEDFADYYCVQYAQFPWTFGGGTKLEIKRTVAAPSVFIFPPSDEQLKSGTASVVCLLNNFYPREAKVQWKVDNALQSGNSQESVTEQDSKDSTYSLSSTLTLSKADYEKHKVYACEVTHQGLSSPVTKSFNRGEC
B7: the Kd with EGFRvIII [2] came to 0.466 nM; in experiment [3], 1.81 nM.

B8: SI-95X4 (antibody)
chain 1: not shown
chain 2: DILMTQSPSSMSVSLGDTVSITCHSSQDINSNIGWLQQRPGKSFKGLIYHGTNLDDEVPSRFSGSGSGADYSLTISSLESEDFADYYCVQYAQFPWTFGGGTKLEIKRTVAAPSVFIFPPSDEQLKSGTASVVCLLNNFYPREAKVQWKVDNALQSGNSQESVTEQDSKDSTYSLSSTLTLSKADYEKHKVYACEVTHQGLSSPVTKSFNRGEC
On to B8, for which the Kd in the experiment with EGFRvIII [1] came out at 5.52 nM.

B9: SI-95X6 (antibody)
chain 1: not shown
chain 2: DILMTQSPSSMSVSLGDTVSITCHSSQDINSNIGWLQQRPGKSFKGLIYHGTNLDDEVPSRFSGSGSGADYSLTISSLESEDFADYYCVQYAQFPWTFGGGTKLEIKRTVAAPSVFIFPPSDEQLKSGTASVVCLLNNFYPREAKVQWKVDNALQSGNSQESVTEQDSKDSTYSLSSTLTLSKADYEKHKVYACEVTHQGLSSPVTKSFNRGEC
Consider B9, for which the affinity in the experiment with EGFRvIII [1], expressed as Kd, was 6.35 nM.

B10: SI-95X64 (antibody)
chain 1: not shown
chain 2: DILMTQSPSSMSVSLGDTVSITCHSSQDINSNIGWLQQRPGKSFKGLIYHGTNLDDEVPSRFSGSGSGADYSLTISSLESEDFADYYCVQYAQFPWTFGGGTKLEIKRTVAAPSVFIFPPSDEQLKSGTASVVCLLNNFYPREAKVQWKVDNALQSGNSQESVTEQDSKDSTYSLSSTLTLSKADYEKHKVYACEVTHQGLSSPVTKSFNRGEC
Regarding B10, the Kd in the experiment with EGFRvIII [2] worked out at 0.638 nM; in experiment [3], 2.31 nM.

B11: SI-95X11 (antibody)
chain 1: not shown
chain 2: QVQLQQSGAEVKKPGSSVKVSCKASGYTFTNYYIYWVRQAPGQGLEWIGGINPTSGGSNFNEKFKTRVTITADESSTTAYMELSSLRSEDTAFYFCTRQGLWFDSDGRGFDFWGQGTTVTVSSGGGGSGGGGSGGGGSDIQMTQSPSSLSASVGDRVTITCRSSQNIVHSNGNTYLDWYQQTPGKAPKLLIYKVSNRFSGVPSRFSGSGSGTDFTFTISSLQPEDIATYYCFQYSHVPWTFGQGTKLQITSGSGSGGGGGSGGGGSGGGGSDILMTQSPSSMSVSLGDTVSITCHSSQDINSNIGWLQQRPGKSFKGLIYHGTNLDDEVPSRFSGSGSGADYSLTISSLESEDFADYYCVQYAQFPWTFGGGTKLEIKRTVAAPSVFIFPPSDEQLKSGTASVVCLLNNFYPREAKVQWKVDNALQSGNSQESVTEQDSKDSTYSLSSTLTLSKADYEKHKVYACEVTHQGLSSPVTKSFNRGEC
Turning to B11, the Kd with EGFRvIII [1] was 4.87 nM.

B12: SI-95X51 (antibody)
chain 1: not shown
chain 2: DIVMTQSPSSVSLSLGDRVTITCHSSQDINSNIGWLQQKPGKAFKGLIYHGTNLDDGVPSRFSGSGSGADYTLTISSLQAEDFATYYCVQYAQFPWTFGPGTKLEIKRTVAAPSVFIFPPSDEQLKSGTASVVCLLNNFYPREAKVQWKVDNALQSGNSQESVTEQDSKDSTYSLSSTLTLSKADYEKHKVYACEVTHQGLSSPVTKSFNRGEC
Take B12: the Kd with EGFRvIII [2] stood at 1.16 nM; in experiment [3] it was 1.81 nM.

B13: SI-95X16 (antibody)
chain 1: not shown
chain 2: DIQMTQSPSSLSASVGDRVTITCRSSQNIVHSNGNTYLDWYQQTPGKAPKLLIYKVSNRFSGVPSRFSGSGSGTDFTFTISSLQPEDIATYYCFQYSHVPWTFGQGTKLQITGGGGSGGGGSGGGGSQVQLQQSGAEVKKPGSSVKVSCKASGYTFTNYYIYWVRQAPGQGLEWIGGINPTSGGSNFNEKFKTRVTITADESSTTAYMELSSLRSEDTAFYFCTRQGLWFDSDGRGFDFWGQGTTVTVSSGGGGSGGGGSGSGSGGGGGSGGGGSGGGGSDILMTQSPSSMSVSLGDTVSITCHSSQDINSNIGWLQQRPGKSFKGLIYHGTNLDDEVPSRFSGSGSGADYSLTISSLESEDFADYYCVQYAQFPWTFGGGTKLEIKRTVAAPSVFIFPPSDEQLKSGTASVVCLLNNFYPREAKVQWKVDNALQSGNSQESVTEQDSKDSTYSLSSTLTLSKADYEKHKVYACEVTHQGLSSPVTKSFNRGEC
Regarding B13, the Kd with EGFRvIII [1] was 19.4 nM.
